Results as given in publication PMC9351570.

Target: nucleosome: recombinant Xenopus laevis histone octamer assembled on 601 DNA with flanking DNA (Xenopus laevis)

nucleosome sliding, native gel remodeling assay, kobs; 601 + 80 WT nucleosome: 0.006 min⁻¹
Substance: mutant INO80 complex purified from yeast lacking Arp5 (from UniProt P53115 1-1489; P40154 1-320; Q12386 1-881)
